From patent publication US20160185837A1 (Medimmune Limited, priority 2013, published 2016)
Where a chain is given by its changes, count along the chain named.

T1: human GIP receptor (hGIPr) (Homo sapiens, UniProt P48546)
T1 construct: expressed in transfected cells
T1 sequence (P48546 22-466): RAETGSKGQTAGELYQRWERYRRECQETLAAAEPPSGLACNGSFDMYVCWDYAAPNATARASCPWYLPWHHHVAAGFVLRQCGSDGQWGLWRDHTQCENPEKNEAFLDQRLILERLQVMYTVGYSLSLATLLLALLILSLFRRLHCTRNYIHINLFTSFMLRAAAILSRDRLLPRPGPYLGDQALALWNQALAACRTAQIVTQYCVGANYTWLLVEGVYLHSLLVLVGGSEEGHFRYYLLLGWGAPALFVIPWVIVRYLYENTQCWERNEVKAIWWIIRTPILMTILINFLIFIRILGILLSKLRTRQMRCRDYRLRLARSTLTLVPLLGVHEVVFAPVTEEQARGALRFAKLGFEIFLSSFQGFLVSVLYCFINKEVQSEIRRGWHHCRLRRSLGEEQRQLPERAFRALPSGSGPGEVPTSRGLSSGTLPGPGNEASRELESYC

B1: IP197 (protein)
chain: YSEGTFTSDVSSYMERQAIDEFIAWLLAGAAAGGSGSTASSGSGSATGGGGAATHTCPPCPAPEF
modifications: /note=“Description of Artificial Sequence Synthetic Peptide-linker-hinge polypeptide”
B2: IP227 (protein)
chain: YSEGTFTSDVSSYMERQAIDEFVNDLLKGGAAAGGSGSTASSGSGSATGGGGAATHTCPPCPAPEF
modifications: /note=“Description of Artificial Sequence Synthetic Peptide-linker-hinge polypeptide”
B3: IP224 (protein)
chain: B2 chain with V23I, N24A, D25W, K28G
modifications: /note=“Description of Artificial Sequence Synthetic Peptide-linker-hinge polypeptide”
B4: IP171: Fc fusion, IgG1-TM, SEQ ID NO:142; agonist peptide YSEGTFTSDVSSYMERQAISEFIAWLLAG (protein)
chain: B1 chain with D20S
modifications: also: Fc fusion, IgG1-TM
notes: agonist peptide YSEGTFTSDVSSYMERQAISEFIAWLLAG
B5: IP176: Fc fusion, IgG1-TM, SEQ ID NO:143; agonist peptide YSEGTFTSDVSSYMERQAISEFIAWLLKGP (protein)
chain: B2 chain with D20S, V23I, N24A, D25W, G30P
modifications: also: Fc fusion, IgG1-TM
notes: agonist peptide YSEGTFTSDVSSYMERQAISEFIAWLLKGP
B6: IP208: isolated polypeptide named in b21; sequence stands in a table not shown here (protein)
chain: B1 chain with M14L, R16G, I19A, D20K
modifications: /note=“Description of Artificial Sequence Synthetic Peptide-linker-hinge polypeptide”
B7: IP204: isolated polypeptide named in b21; sequence stands in a table not shown here (protein)
chain: HGEGTFISDYSIAMDKIHQQDFVNWLLAQKAAAGGSGSTASSGSGSATGGGGAATHTCPPCPAPEF
modifications: /note=“Description of Artificial Sequence Synthetic Peptide-linker-hinge polypeptide”
B8: IP199: isolated polypeptide named in b21; sequence stands in a table not shown here (protein)
chain: B1 chain with Y1H, S2G, M14L, R16G, I19A, D20K
modifications: /note=“Description of Artificial Sequence Synthetic Peptide-linker-hinge polypeptide”
B9: IP173: isolated polypeptide named in b21; sequence stands in a table not shown here (protein)
chain: B1 chain with M14L, R16E, I19A, D20K
modifications: /note=“Description of Artificial Sequence Synthetic Peptide-linker-hinge polypeptide”
B10: IP150: isolated polypeptide named in b21; sequence stands in a table not shown here (protein)
chain: YSEGTFTSDVSSYLEGQAAKEFIAWLVAGGAPPGGSGSTASSGSGSATGGGGAATHTCPPCPAPEF
modifications: /note=“Description of Artificial Sequence Synthetic Peptide-linker-hinge polypeptide”
B11: IP174: isolated polypeptide named in b21; sequence stands in a table not shown here (protein)
chain: B10 chain with Y1H, S2G, G16E, Q17E, P32A, P33A
modifications: /note=“Description of Artificial Sequence Synthetic Peptide-linker-hinge polypeptide”
B12: IP233 (protein)
chain: B1 chain with Y1H, S2G, M14L, R16E, I19A, D20K, L27V, A28K
modifications: /note=“Description of Artificial Sequence Synthetic Peptide-linker-hinge polypeptide”
B13: IP132 (protein)
chain: HGEGTFTSDVSSYLEGQAAKEFIAWLVKGGGGGGSGGGGSGGGGSGGGGSATHTCPPCPAPEF
modifications: /note=“Description of Artificial Sequence Synthetic Peptide-linker-hinge polypeptide”
B14: IP187 (protein)
chain: HGEGTFTSDVSSYLEGQAAKEFIAWLVKGAPPGGGGGSGGGGSGGGGSGGGGSATHTCPPCPAPEF
modifications: /note=“Description of Artificial Sequence Synthetic Peptide-linker-hinge polypeptide”
B15: IP191 (protein)
chain: HGEGTFTSDVSSYLEGQAAKEFIAWLVKGAAAGGSGSTASSGSGSATGGGGAATYTCPPCPAPEF
modifications: /note=“Description of Artificial Sequence Synthetic Peptide-linker-hinge polypeptide”
B16: IP192 (protein)
chain: B15 chain with Y55S
modifications: /note=“Description of Artificial Sequence Synthetic Peptide-linker-hinge polypeptide”
B17: IP194 (protein)
chain: HGEGTFTSDVSSYLEGQAAKEFIAWLVKGAAAGGSGSTASSGSGSATGGGGPPCPPCPAPEF
modifications: /note=“Description of Artificial Sequence Synthetic Peptide-linker-hinge polypeptide”
B18: IP195 (protein)
chain: HGEGTFTSDVSSYLEGQAAKEFIAWLVKGAAAGGSGSTASSGSGSATGGGGESKYGPPCPPCPAPEF
modifications: /note=“Description of Artificial Sequence Synthetic Peptide-linker-hinge polypeptide”
B19: IP230 (protein)
chain: B15 chain with Y55H
modifications: /note=“Description of Artificial Sequence Synthetic Peptide-linker-hinge polypeptide”

Key:
[1] = molecular target: T2, human GLP-1 receptor (hGLP-1r) (Homo sapiens, UniProt P43220); test: BSA-cAMP assay, cells expressing human GLP-1 receptor; type: cell-based; details: BSA-cAMP assay; batch 1 unless a batch is given; read-out: cAMP activity hGLP1r (EC50)
T2 construct: expressed in transfected cells
Experimental: (§1) One basic cAMP assays was performed, differing in the medium used for the assay, the “BSA-cAMP assay”:
(§2) BSA-based assay medium: 0.1% bovine serum albumin (BSA) in
(§3) In certain aspects, the assay can also be carried out in medium supplemented with serum albumin that corresponds to the receptor being tested, e.g., human serum albumin for testing cAMP activity at hGIPr or hGLP-1r, rat serum albumin for testing cAMP activity at rGIPr or rGLP-1r, and so on. […] All sample dilutions were made in duplicate.
(§4) A frozen cryo-vial of cells expressing the receptor of interest was thawed rapidly in a water-bath, transferred to pre-warmed assay media and spun at 240×g for 5 minutes. Cells were re-suspended in assay buffer at an optimized concentration (e.g., hGLP-1r and hGIPr cells at 0.5×10^5 cells/ml).
(§5) To this, 5 μL cell suspension was added and the plates incubated at room temperature for 30 minutes.
(§6) cAMP levels were measured using a commercially available cAMP dynamic 2 HTRF kit (Cisbio, Cat #62AM4PEJ), following the two step protocol as per manufacturer's recommendations. In brief; anti-cAMP cryptate (donor fluorophore) and cAMP-d2 (acceptor fluorophore) were made up separately by diluting each 1/20 in conjugate & lysis buffer provided in the kit. 5 μL anti-cAMP cryptate was added to all wells of the assay plate, and 5 μL cAMP-d2 added to all wells except non-specific binding (NSB) wells, to which conjugate and lysis buffer was added. […] Data was transformed to % Delta F as described in manufacturer's guidelines and then transformed to percent activation of maximal native agonist response and analysed by 4-parameter logistic fit to determine EC50 values.
(§7) We used unconstrained 4 parameter logistic fit of data, curve mid-point to determine EC50. This was tested on two occasions, not two batches.

[2] = molecular target: T1, human GIP receptor (hGIPr); test: BSA-cAMP assay, cells expressing human GIP receptor; type: cell-based; details: BSA-cAMP assay; batch 1 unless a batch is given; read-out: cAMP activity hGIPr (EC50)
Experimental: For human GIPr, two different lines were used, shown as “hGIPr” and “hGIPr (C3)” in Table 11.
as §1, §2, §3, §4, §5, §6, §7

T2 sequence (P43220 24-463): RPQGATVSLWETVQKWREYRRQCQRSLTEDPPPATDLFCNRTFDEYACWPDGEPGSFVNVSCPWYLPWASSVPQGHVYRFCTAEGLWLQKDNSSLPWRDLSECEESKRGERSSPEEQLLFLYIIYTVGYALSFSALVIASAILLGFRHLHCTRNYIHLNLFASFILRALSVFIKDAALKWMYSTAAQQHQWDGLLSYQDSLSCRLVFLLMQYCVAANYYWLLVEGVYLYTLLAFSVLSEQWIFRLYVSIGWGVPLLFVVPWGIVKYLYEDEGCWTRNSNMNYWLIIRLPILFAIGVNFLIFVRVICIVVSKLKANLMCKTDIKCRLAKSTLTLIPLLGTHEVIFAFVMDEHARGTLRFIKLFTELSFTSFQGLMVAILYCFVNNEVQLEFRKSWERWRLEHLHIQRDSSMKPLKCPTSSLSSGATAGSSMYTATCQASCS

Row | Molecule | EC50 [1] | EC50 [2]
1 | B1 | 0.78 nM | 0.18 nM
2 | B2 | 48 nM | 
3 | B3 | 0.57 nM | 0.35 nM
4 | B4 | 0.53 nM | 0.39 nM
5 | B5 | 0.6 nM | 0.42 nM
6 | B6 | 1.6 nM | 17 nM
7 | B7 | 850 nM | 0.12 nM
8 | B8 | 0.069 nM | 
9 | B9 | 0.23 nM | 1.2 nM
10 | B10 | 0.033 nM | 16 nM
11 | B11 | 0.032 nM | 460 nM
12 | B12 | 0.036 nM | 
13 | B13 | 0.04 nM | 81 nM
14 | B14 | 0.037 nM | 540 nM
15 | B15 | 0.057 nM | 
16 | B16 | 0.043 nM | 
17 | B17 | 0.061 nM | 
18 | B18 | 0.061 nM | 
19 | B19 | 0.056 nM | > 15000 nM
